In patent EP1262190A1, “RFRP-CONTAINING PROLACTIN SECRETION REGULATORY AGENT” (Takeda Chemical Industries, Ltd., priority 2000, dated 2001):

Target: human 0T7T022 receptor (human)
Assay: cell-based or functional assay

| Substance | ED50, inhibition of the cAMP level increased by forskolin |
| --- | --- |
| hRFRP-1-37 (peptide having the 56 (Ser) to 92 (Phe) amino acid sequence in SEQ ID NO:1) | 21 nM |
| rRFRP-1-37 (peptide having the 58 (Ser) to 94 (Phe) amino acid sequence in SEQ ID NO:50) | 30 nM |
